Measured values: US12551573B2, “Compositions and methods for the targeting of PCSK9” (Scribe Therapeutics Inc., priority 2022, dated 2026)
Like-named read-outs stand apart in the source and are kept apart here.

What was measured:
[1] = tested on: HBEGF locus; format: cell-based, human; details: for Log2 (fold change): high-throughput screen of dXR repression of the HBEGF gene
[2] = tested on: B2M locus; assay: B2M repression (HLA-negative cells by flow cytometry) in HEK293T cells transfected with LTRP plasmids; format: cell-based, human; details: HEK293T; for B2M repression by LTRP5 constructs with enhanced repressor domains: LTRP5 without ADD, scaffold 316 spacer 7.165, days 6/7 to 26/27, vs LTRP5-ZIM3; for % HLA-negative cells (mean): spacer 7.37 (B2M)
Description: Each construct was tested in triplicate.
Each construct was tested in triplicate. […] Cells were harvested for repression analysis at day 5, day 12, day 21, and day 51 post-transfection.
Each construct was tested in triplicate. […] Cells were harvested for repression analysis at day 8, day 13, day 20, and day 27 post-transfection. […] In addition, cells were also harvested on day 5 post-transfection for gDNA extraction for bisulfite sequencing to assess off-target methylation at the non-targeted VEGFA locus, which was performed using similar methods as described in Example 13.
HEK293T cells were transfected as described in Example 14, except that the cells were transfected with 50 ng each of a plasmid encoding the LTRP construct and a plasmid encoding the gRNA. […] 72 of the 95 top repressor domains were assessed together in one experiment where B2M expression was measured at 7, 14, 19, and 26 days after transfection, and the data shown in Tables 57-60.

[3] = abundance of each domain in the library before and after diphtheria toxin selection, HEK293T cells
[4] = change in abundance of each domain in the library before and after diphtheria toxin selection

| Molecule | Log2 (fold change) [1, 3] | also measured |
| --- | --- | --- |
| DOMAIN_15863 (protein, Vulpes vulpes) CWGLLSFKDISMEFTWEEWQLLDSAQKYLYRDVILENYSHLVSLGYHGTKPDLIFKLEQGEEPWMINARVSRQSYPEGWKE | 2.7434 | – |
| DOMAIN_16694 (protein, listed as Callorhinus ursinus) SYGSFSFEDVTVGFTQEEWQHLGPAQRILYRDVMLENYSHLVSVGCCIPKPEVILKLEQGEQPWILEEESPSQSYPGLPTD | 2.0979 | – |
| DOMAIN_26749: repressor domain derived from the king cobra, Ophiophagus hannah; SEQ ID NO: 135 (protein, Ophiophagus hannah) STPVTFEDVVVYFTAAEWVHLTNWQRDFYQAVMMETYELVASVAGDGVPMAEDEEGGVERPVWQYIPRGKRRRKTPQPRAD | – | B2M repression by LTRP5 constructs with enhanced repressor domains [2]: most effective repressor domains; log 2 (fold change) of abundance before and after selection ([1]; HEK293T, dCasX491 fusion, scaffold 174 spacer 34.28, 2 ng/ml diphtheria toxin for 48 hours): highest log 2 (fold change); Log2 (fold change) [1, 4]: 5.4323 |
| DOMAIN_16050 (protein, Ovis aries) PLESVTFEDVAVDFTQEEWSLLDKSQKNLFRNVMLETVTHLVSVGYQISKSDVIFQLEQGKELWPEAAGGLQGQSPDEVTP | 2.7105 | – |
| DOMAIN_15800 (protein, listed as Otolemur garnettii) MAFEDVAVYFSQEEWGLLDTAQRALYRHVMLENFTLVSSLGLSTSRPRVVVQLERGEEPWVPSRIDSTPARNAQGRRNPGS | 3.4462 | – |
| DOMAIN_16566 (protein, listed as Odocoileus virginianus) HQESLTFKDVAVNFTQEEWHHVDAAQRRLYKDVMLENYSHLVSLGYQVSKPEVIFKLEQGEEPWIAEGEIQRPVCPDWKTR | 3.3903 | – |
| DOMAIN_16461 (protein, Cebus imitator) AQESVTFEDVAVNFTDREWQCLTYAQRHLYKDVMLENYGNMVSVGFPFPKPPLISHLERGVELCVQDPQDRESLSCSCLVS | 3.1155 | – |
| DOMAIN_16556 (protein, listed as Rhinopithecus roxellana) AQESVTFEDVAVNFTNREWQSLTYAQRHLYKHVMLENYRNMVSLGFPFPKPPLISHLERGVEPCVQDPQDKESLSCSYPVS | 2.4217 | – |
| DOMAIN_29304: one of the nine most effective repressor domains (protein, listed as Peromyscus maniculatus) VTYNDVHVDITQEEWALMDPSQRNLYKDVMVETYMNLTAIGYNWENLEVEEPCQNPLKHGRHERPHTGEKPYEYNQCGKAFAQP | – | B2M repression by LTRP5 constructs with enhanced repressor domains [2]: most effective repressor domains; Log2 (fold change) [1, 4]: 4.0496 |
| dCasX491: catalytically-dead CasX variant, SEQ ID NO: 4 (protein) QEIKRINKIRRRLVKDSNTKKAGKTGPMKTLLVRVMTPDLRERLENLRKKPENIPQPISNTSRANLNKLLTDYTEMKKAILHVYWEEFQKDPVGLMSRVAQPASKKIDQNKLKPEMDEKGNLTTAGFACSQCGQPLFVYKLEQVSEKGKAYTNYFGRCNVAEHEKLILLAQLKPEKDSDEAVTYSLGKFGQRALDFYSIHVTKESTHPVKPLAQIAGNRYASGPVGKALSDACMGTIASFLSKYQDIIIEHQKVVKGNQKRLESLRELAGKENLEYPSVTLPPQPHTKEGVDAYNEVIARVRMWVNLNLWQKLKLSRDDAKPLLRLKGFPSFPLVERQANEVDWWDMVCNVKKLINEKKEDGKVFWQNLAGYKRQEALRPYLSSEEDRKKGKKFARYQLGDLLLHLEKKHGEDWGKVYDEAWERIDKKVEGLSKHIKLEEERRSEDAQSKAALTDWLRAKASFVIEGLKEADKDEFCRCELKLQKWYGDLRGKPFAIEAENSILDISGFSKQYNCAFIWQKDGVKKLNLYLIINYFKGGKLRFKKIKPEAFEANRFYTVINKKSGEIVPMEVNFNFDDPNLIILPLAFGKRQGREFIWNDLLSLETGSLKLANGRVIEKTLYNRRTRQDEPALFVALTFERREVLDSSNIKPMNLIGVARGENIPAVIALTDPEGCPLSRFKDSLGNPTHILRIGESYKEKQRTIQAKKEVEQRRAGGYSRKYASKAKNLADDMVRNTARDLLYYAVTQDAMLIFANLSRGFGRQGKRTFMAERQYTRMEDWLTAKLAYEGLSKTYLSKTLAQYTSKTCSNCGFTITSADYDRVLEKLKKTATGWMTTINGKELKVEGQITYYNRYKRQNVVKDLSVELDRLSEESVNNDISSWTKGRSGEALSLLKKRFSHRPVQEKFVCLNCGFETHAAEQAALNIARSWLFLRSQEYKKYQTNKTTGNTDKRAFVETWQSFYRKKLKEVWKPAV | – | % HLA-negative cells (mean) ([2]; 50 days post-transfection): 0.49%; % HLA-negative cells (mean) ([2]; 73 days post-transfection): 0.83% |
| DOMAIN_16115 (protein, listed as Bos taurus) VQGSVSFEDVAVGFSQEEWQILGPSQKALYWDVMLENYCNLVSVGYQAPTPNSLFQLEQGGPPWTVEGAALSSTCSGYQAT | 2.9023 | – |
| DOMAIN_16611 (protein, listed as Papio anubis) MAFEDVAVYFSQEEWGLLDTAQRALYRHVMLENFTLVTSLGLSTSRPYVVIQLERGEEPWVPSGKDMTLARNTYRRLNAGS | 3.4786 | – |
| DOMAIN_16738 (protein, Pan troglodytes) MAFEDVAVYFSQEEWGLLDTTQRALYRHVMLENFTLVTSLGLSTSRPHVVIQLERGEEPWVPSGTDTTLSRTTYRRRNPGS | 3.5957 | – |
| DOMAIN_16811 (protein, listed as Balaenoptera acutorostrata) PQASVSFKDVTVEFTQEEWWQMDSAQRTLYRDVMLENYSHLVSVGYCFTKPELIFMLEQGEDPWLLEKEFVNRSSPEESQP | 3.5141 | – |
| DOMAIN_16246 (protein, listed as Macaca mulatta) ASVTVTFDDVALYFSEQEWEILEKWQKQMYKQEMKTNYQTLDSLGYAFSKPDLITWMEQGRMLFISEQGCLDKTRRTTSPP | 2.3971 | – |
| DOMAIN_16534 (protein, listed as Acinonyx jubatus) SHGPLSFEDVAVAFTKEEWQQLDPAQRTLYRDVMLENFSHVISLGHPVSKPDVISKLEQGEEPWIIKRDVSDWIYPERETR | 2.7531 | – |
| DOMAIN_15839 (protein, listed as Callithrix jacchus) AQESMTFRDVAVFFSQDEWLHLDSAQRALYREVMLENYSTLVSLGIPFSMPKVIHQLQQGQDPCTVEGDVPSNTCLGFKTW | 2.3399 | – |
